This is an account of results in paper PMC3840697 (Angewandte Chemie (International Ed. in English), 2013).

The target in the test is T1, exosome core with Rrp42 N9A (state A mutant) (UniProt Q9UXC2 1-248; Q9UXC0 1-275, N9A).
T1 sequence 1: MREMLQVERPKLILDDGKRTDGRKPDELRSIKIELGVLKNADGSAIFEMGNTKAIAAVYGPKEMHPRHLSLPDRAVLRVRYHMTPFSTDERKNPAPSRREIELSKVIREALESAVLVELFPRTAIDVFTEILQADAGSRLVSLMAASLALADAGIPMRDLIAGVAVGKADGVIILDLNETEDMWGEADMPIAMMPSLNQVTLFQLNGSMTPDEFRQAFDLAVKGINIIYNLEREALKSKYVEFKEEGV
T1 sequence 2: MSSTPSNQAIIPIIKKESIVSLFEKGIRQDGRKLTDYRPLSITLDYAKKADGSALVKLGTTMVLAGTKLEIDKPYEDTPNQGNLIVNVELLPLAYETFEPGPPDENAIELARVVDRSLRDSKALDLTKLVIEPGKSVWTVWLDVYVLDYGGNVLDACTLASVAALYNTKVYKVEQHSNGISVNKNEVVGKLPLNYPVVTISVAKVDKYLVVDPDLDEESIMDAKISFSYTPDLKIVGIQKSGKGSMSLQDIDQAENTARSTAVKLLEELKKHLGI
The test can be described thus: methyl TROSY NMR spectra of free and cap-bound exosome core.

B1: Rrp4 (exosome cap protein) (natural protein)
chain: MNMSQSQKIVLQPRSIVVPGELLAEGEFQIPWSPYILKINSKYYSTVVGLFDVKDTQFEVIPLEGSFYYPKINDIVIGLVEDVEIYGWVVDIKAPYKAYLPASNLLGRSINVGEDLRRYLDVGDYVIARIENFDRSIDPVLSVKGKDLGRVSNGIVIDIMPVKVPRVIGKNKSMYETLTSKSGCSIFVANNGRIWATCPSRFSEEILIEAIRKIENESHIKGLTDRIKQFIEEKLGERNASSGETKTNS
With B1, the binding result is given as “binds”.
